The values that follow come from patent US20260274985A1 (MYTHIC THERAPEUTICS, published 2026).

Experiment [1] deals with T1, Human TROP2 Protein, His Tag (Acro Biosystems) (human, UniProt P09758 27-274).
T1 construct: not shown: His tag
T1 sequence (looked up): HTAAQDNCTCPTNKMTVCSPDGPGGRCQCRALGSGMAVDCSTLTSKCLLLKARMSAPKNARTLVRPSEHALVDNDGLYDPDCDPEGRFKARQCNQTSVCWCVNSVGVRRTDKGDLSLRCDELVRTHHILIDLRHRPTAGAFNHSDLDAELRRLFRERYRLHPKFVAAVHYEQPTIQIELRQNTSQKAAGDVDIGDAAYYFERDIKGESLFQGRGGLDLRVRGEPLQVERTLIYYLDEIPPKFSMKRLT
Description: BLI (Octet).

The target in experiment [2] is T2, TROP2 on TROP2-positive NCI-H1975 cells (human, UniProt P09758 27-323).
T2 construct: whole, on cells
T2 sequence (looked up): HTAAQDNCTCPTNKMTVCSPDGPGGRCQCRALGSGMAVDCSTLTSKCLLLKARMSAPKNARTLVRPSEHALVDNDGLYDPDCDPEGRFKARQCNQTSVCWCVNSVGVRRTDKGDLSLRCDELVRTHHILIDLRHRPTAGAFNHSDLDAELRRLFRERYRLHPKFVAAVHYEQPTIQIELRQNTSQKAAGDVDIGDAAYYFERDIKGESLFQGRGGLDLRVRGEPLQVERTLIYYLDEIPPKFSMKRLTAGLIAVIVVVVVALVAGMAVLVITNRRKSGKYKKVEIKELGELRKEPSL
Description: binding to TROP2-positive NCI-H1975 cells at pH 7.4.

The target of experiment [3] is T2, TROP2 on TROP2-positive NCI-H1975 cells. The experiment in a line: binding to TROP2-positive NCI-H1975 cells at pH 5.4.
For experiment [4] the target is unchanged. Description: binding to TROP2-positive NCI-H1975 cells at pH 6.7.
For experiment [5], the target named is T3, Human TROP2 Protein, His Tag (Acro Biosystems) (human, UniProt P09758 27-274).
T3 construct: not shown: His tag
T3 sequence (looked up): T1 sequence (looked up)
Description: Octet (BLI); antigen and pH not given.

In experiment [6] the target is T4, Human TROP2 Protein, His Tag (Acro Biosystems) (human, UniProt P09758 27-274).
T4 construct: also called TACSTD2; not shown: His tag
T4 sequence (looked up): T1 sequence (looked up)
The experiment in a line: BLI (Octet) [2/2].

Where a chain is given by its changes, count along the chain named.

B1: MYT12390 (antibody, V domains shown)
VH: QVQLVQSGAEVKKPGASVKVSCKASGYTFTTAGMQWVRQAPGQGLEWMGWINTHSGVPKYAEDFKGRVTISADTSTSTAYLQLSSLKSEDTAVYYCARSGFGSSYWYFDVWGQGTLVTVSS
VL: DIQMTQSPSSLSASVGDRVTITCKASQHVSTAVAWYQQKPGKAPKLLIYSASYRYTGVPSRFSGSGSGTDFTLTISSLQPEDFAVYYCHQHYITPLTFGQGTKLEIK
notes: datopotamab VL 28, 89 substituted
With B1, the binding result in experiment [1] is “no binding (tested: 50 nM)”.

B2: MYT11635 (antibody, human IgG1, V domains shown)
VH: B1 VH
VL: B1 VL with H28D, H89Q
notes: IgG; also called Datopotamab WT; Datopotamab
Take B2: the IC50 was found to be 0.51 nM in experiment [2], 0.48 nM in experiment [3] and 0.54 nM in experiment [4]. The molecule also yielded a Kd in experiment [5] of 1.25 nM. For the same molecule, the “Octet response at 33.33 nM (Y-Axis) nm” value in experiment [5] is 0.13 nm.

B3: MYT11566 (antibody, human IgG1, V domains shown)
VH: QVQLQQSGSELKKPGASVKVSCKASGYTFTNYGMNWVKQAPGQGLKWMGWINTYTGEPTYTDDFKGRFAFSLDTSVSTAYLQISSLKADDTAVYFCARGGFGSSYWYFDVWGQGSLVTVSS
VL: B1 VL with M4L, T20S, H28D, T31I, S60D, H89Q, Q100A, L104V
notes: IgG; also called Sacituzumab WT; Sacituzumab
Regarding B3, the IC50 was 1.05 nM in experiment [2], 1.15 nM in experiment [3] and 0.94 nM in experiment [4]. Binding in experiment [5] was characterised by a dissociation constant (Kd) of 0.6 nM. Also, the “Octet response at 33.33 nM (Y-Axis) nm” value in experiment [5] came to 0.157 nm.

B4: MYT12397 (antibody, V domains shown)
VH: B1 VH
VL: B1 VL with H28D, Y92H
notes: datopotamab VL 89, 92 substituted
Consider B4, for which the binding result in experiment [1] was “no binding (tested: 50 nM)”.

B5: MYT12394 (antibody, V domains shown)
VH: B1 VH
VL: B1 VL with H28D, A51H, H89Q, Y92H
notes: datopotamab VL 51, 92 substituted
On to B5, for which, in experiment [1], the binding result is “no binding (tested: 50 nM)”.

B6: MYT13369 (antibody, human IgG1, V domains shown)
VH: B3 VH with D62H
VL: B1 VL with M4L, T20S, H28D, S30H, T31I, V33H, S60D, H89Q, Q100A, L104V
notes: IgG; also called Sacituzumab HC-LC pairing variant
Take B6: the IC50 in experiment [2] was 0.63 nM; in experiment [3], roughly 25 nM; in experiment [4] it was 1.02 nM. In experiment [5], this molecule registered a Kd of 0.14 nM. Further, the “Octet response at 33.33 nM (Y-Axis) nm” value in experiment [5] stood at 0.167 nm.

B7: MYT12401 (antibody, V domains shown)
VH: B1 VH
VL: B1 VL with S52H
notes: datopotamab VL 28, 52, 89 substituted
B7: the binding result in experiment [1] is “no binding (tested: 50 nM)”.

B8: MYT13430 (antibody, V domains shown)
VH: B3 VH with Y32H
VL: DIQLTQSPSSLSASVGDRVSITCKASQDVSIAVAWYQQKPGKAPKLLIYSHSHRYTGVPDRFSGSGSGTDFTLTISSLQPEDFAVYYCQQHYHTPLTFGAGTKVEIK
notes: Sacituzumab HC-LC pairing variant
Regarding B8, the binding result in experiment [6] was “binds”.

B9: MYT12396 (antibody, V domains shown)
VH: B1 VH
VL: B1 VL with H28D, S52H, H89Q, Y92H
notes: datopotamab VL 52, 92 substituted
As to B9, in experiment [1], the binding result was “no binding (tested: 50 nM)”.

B10: MYT12391 (antibody, V domains shown)
VH: B1 VH
VL: B1 VL with H89Q, Y92H
notes: datopotamab VL 28, 92 substituted
Regarding B10, the binding result in experiment [1] is recorded as “no binding (tested: 50 nM)”.

B11: MYT12400 (antibody, V domains shown)
VH: B1 VH
VL: B1 VL with A51H, H89Q, Y92H
notes: datopotamab VL 28, 51, 92 substituted
Turning to B11, in experiment [1], the binding result is listed as “no binding (tested: 50 nM)”.

B12: MYT13436 (antibody, V domains shown)
VH: B3 VH with K65H
VL: B8 VL
notes: as for B8
As to B12, the binding result in experiment [6] is “binds”.

B13: MYT12402 (antibody, V domains shown)
VH: B1 VH
VL: B1 VL with S52H, H89Q, Y92H
notes: datopotamab VL 28, 52, 92 substituted
Regarding B13, the binding result in experiment [1] is on record as “no binding (tested: 50 nM)”.

B14: MYT11670 (antibody, human IgG1, V domains shown)
VH: B1 VH with S104H
VL: B1 VL with H28D, H89Q
notes: IgG
Consider B14, for which the IC50 was 1.61 nM in experiment [2], 1.83 nM in experiment [3] and 1.42 nM in experiment [4]. For the same molecule, binding in experiment [5] was characterised by a dissociation constant (Kd) of 10.9 nM. In addition, the “Octet response at 33.33 nM (Y-Axis) nm” value in experiment [5] is 0.0891 nm.

B15: MYT11614 (antibody, human IgG1, V domains shown)
VH: B3 VH
VL: B8 VL with S30H, H51A, H53Y, H93I
notes: IgG; also called Sacituzumab LC variant
In the case of B15, the IC50 was 0.82 nM in experiment [2], roughly 5 nM in experiment [3] and 1.06 nM in experiment [4]. The same molecule returned a Kd in experiment [5] of 0.75 nM. Besides, in experiment [5], the “Octet response at 33.33 nM (Y-Axis) nm” value came to 0.149 nm.

B16: MYT13423 (antibody, V domains shown)
VH: B3 VH with G33H
VL: B8 VL with S30H, H53Y
notes: as for B8
Take B16: in experiment [6], the binding result is reported as “binds”.

B17: MYT12403 (antibody, V domains shown)
VH: B1 VH
VL: B1 VL with Y92H
notes: datopotamab VL 28, 89, 92 substituted
Turning to B17, in experiment [1], the binding result was “no binding (tested: 50 nM)”.

B18: MYT11699 (antibody, V domains shown)
VH: B1 VH
VL: B1 VL with H28D, H89Q, I93H
notes: IgG; also called Datopotamab LC variant
In the case of B18, the IC50 in experiment [2] came to 0.73 nM; in experiment [3], 4.58 nM; in experiment [4] it was 1.16 nM. Further, in experiment [5], the equilibrium dissociation constant (Kd) was determined as 3.52 nM. In addition, in experiment [5], the “Octet response at 33.33 nM (Y-Axis) nm” value is 0.0968 nm.

B19: MYT13414 (antibody, V domains shown)
VH: B3 VH with Y32H
VL: B8 VL with S30H, H53Y, Q89H, H93I
notes: as for B8
B19: the binding result in experiment [6] was “binds”.

B20: MYT11704 (antibody, human IgG1, V domains shown)
VH: QVQLQESGPGLVKPSETLSLTCTVSGGSISSYGVHWIRQPPGKGLEWIGVIWTSGVTDYNSALMGRVTISVDTSKNQFSLKLSSVTAADTAVYYCARDGDYDRYTMDYWGQGTLVTVSS
VL: DIVMTQSPDSLAVSLGERATINCRASKSVSTSGYSYMHWYQQKPGQPPKLLIYLASNLESGVPDRFSGSGSGTDFTLTISSLQAEDVAVYYCQHSRELPYTFGQGTKLEIK
notes: IgG; also called hu7E6SVG WT; hu7E6SVG
Take B20: the results for the IC50 in experiment [2], in experiment [3] and in experiment [4] were 0.98 nM, 1.29 nM and 0.97 nM, respectively. The molecule also had a Kd in experiment [5] of 4.4 nM. Moreover, in experiment [5], the “Octet response at 33.33 nM (Y-Axis) nm” value stood at 0.118 nm.

B21: MYT12459 (antibody, human IgG1, V domains shown)
VH: B20 VH
VL: B20 VL with E59H, Q93H, E97H
notes: IgG; also called hu7E6SVG LCC his scan variant
With B21, the values for the IC50 in experiment [2], in experiment [3] and in experiment [4] were 1.42 nM, roughly 30 nM and 1.67 nM, respectively. The same molecule came in with a Kd in experiment [5] of 6.02 nM. In addition, in experiment [5], the “Octet response at 33.33 nM (Y-Axis) nm” value is 0.0906 nm.
